This is an account of results in IntAct's records for PubMed 12655004.

The chains are these.
B1: U3 small nucleolar ribonucleoprotein protein IMP4 (Homo sapiens), Q96G21 (parent)
chain: MLRREARLRREYLYRKAREEAQRSAQERKERLRRALEENRLIPTELRREALALQGSLEFDDAGGEGVTSHVDDEYRWAGVEDPKVMITTSRDPSSRLKMFAKELKLVFPGAQRMNRGRHEVGALVRACKANGVTDLLVVHEHRGTPVGLIVSHLPFGPTAYFTLCNVVMRHDIPDLGTMSEAKPHLITHGFSSRLGKRVSDILRYLFPVPKDDSHRVITFANQDDYISFRHHVYKKTDHRNVELTEVGPRFELKLYMIRLGTLEQEATADVEWRWHPYTNTARKRVFLSTE
partner: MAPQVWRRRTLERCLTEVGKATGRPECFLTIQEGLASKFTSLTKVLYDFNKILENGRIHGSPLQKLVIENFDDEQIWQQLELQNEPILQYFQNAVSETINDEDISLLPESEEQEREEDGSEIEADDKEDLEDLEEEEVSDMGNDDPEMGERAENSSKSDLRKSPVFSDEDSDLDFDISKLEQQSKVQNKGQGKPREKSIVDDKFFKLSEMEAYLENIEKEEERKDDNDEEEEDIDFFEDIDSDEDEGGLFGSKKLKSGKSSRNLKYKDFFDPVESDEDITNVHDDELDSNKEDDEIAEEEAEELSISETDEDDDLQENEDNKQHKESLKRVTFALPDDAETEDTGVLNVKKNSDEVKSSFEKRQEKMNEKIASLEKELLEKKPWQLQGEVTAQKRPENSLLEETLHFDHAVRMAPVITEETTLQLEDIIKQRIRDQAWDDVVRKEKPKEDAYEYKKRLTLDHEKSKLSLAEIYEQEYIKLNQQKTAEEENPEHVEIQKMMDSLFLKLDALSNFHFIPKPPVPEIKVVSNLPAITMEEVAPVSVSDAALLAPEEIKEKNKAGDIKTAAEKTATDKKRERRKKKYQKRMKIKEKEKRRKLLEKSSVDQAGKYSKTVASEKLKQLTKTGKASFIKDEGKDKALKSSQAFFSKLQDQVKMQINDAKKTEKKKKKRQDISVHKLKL

The assay covers variants of B1. Particulars: with mpp10_human MPHOSPH10, O00566.
Take MLRREARLRREYLYRKAREEAQRSAQERKERLRRALEENRLIPTELRREALALQGSLEFDDAGGEGVTSHVDDEYRWAGVEDPKVMITTSRDPSSRLKMFAKELKLVFPGAQRMNRGRHEVGALVRACKANGVTDLLVVHEHRGTPVGLIVSHLPFGPAAYATLCNVVMRHDIPDLGTMSEAKPHLITHGFSSRLGKRVSDILRYLFPVPKDDSHRVITFANQDDYISFRHHVYKKTDHRNVELTEVGPRFELKLYMIRLGTLEQEATADVEWRWHPYTNTARKRVFLSTE [T159A;F162A]: the “effect of a mutation on the interaction” value is “disrupting interaction strength”. Consider MLRREARLRREYLYRKAREEAQRSAQERKERLRRALEENRLIPTELRREALALQGSLEFDDAGGEGVTSHVDDEYRWAGVEDPKVMITTSRDPSSRLKMFAKELKLVFPGAQRMNRGRHEVGALVRACKANGVTDLLVVHEHRGTPVGLIVSHLPFGPTAYFTLCNVVMRHDIPDLGTMSEAKPHLITHGFSSRLGKRVSDILRYLFPVPKDDSHRVITFANQDDYISFRHHVYKKTDHRNVELTAVGPAFELKLYMIRLGTLEQEATADVEWRWHPYTNTARKRVFLSTE [E246A;R250A], for which the “effect of a mutation on the interaction” value is on record as “disrupting interaction strength”.
